± gives the uncertainty stated by the source.

A short description of this data set: amyloid nucleation score (Sup35N fusion, yeast selection) (log enrichment); library NNK2; higher = more nucleation; inactive = no reads after selection. In outline: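 The nucleation score is the DiMSum log enrichment of output over input reads, centred on the mode score of non-aggregating sequences. Only sequences with 100 or more input reads were scored, using Illumina sequencing of input and output plasmid inserts. Psi-negative yeast expressing Sup35N fused to peptides of 20 random codons were induced 24 hours with 100 μM copper sulfate and grown 7 days at 30°C on medium lacking adenine and uracil.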
CSSFTQGCKCSF displayed an amyloid nucleation score of -0.139 ± 0.37.

VGIYDYVLRSC showed an amyloid nucleation score of 0.115 ± 0.33.

As to TTGHQLNDCYLKGCFSEWIL, the amyloid nucleation score was -0.073 ± 1.

As to YNPCLSRSHSKCLRTWLECR, the amyloid nucleation score was determined as 1.26 ± 0.44.

The substance PGSRRL came in with an amyloid nucleation score of 0.011 ± 0.41.

For SVCMRIKFWSPAPDAEHEKA, the amyloid nucleation score came to 6.614 ± 0.056.

For the substance LSRSRVINIYASAGWRFLGS, the amyloid nucleation score result is “inactive”.

Regarding AFCAGVQAPEFPNLA, the amyloid nucleation score was found to be 0.437 ± 0.65.

As for AIFYDLMVNQRFVFTSFLWL, the amyloid nucleation score is -0.14 ± 0.74.

For the substance GLGAFSSP, the amyloid nucleation score worked out at 0.247 ± 0.46.

Substance GCDEEDCCCLRFRGC displayed an amyloid nucleation score of 6.513 ± 0.031.

Consider YFRWGLSSKASLWHVRWALG, for which the amyloid nucleation score is 0.409 ± 0.8.

SMHEISVLLVDPVTLQYLG came in with an amyloid nucleation score of 0.114 ± 0.63.

In the case of RNVCGCPGCYFNVDAILLWY, the amyloid nucleation score was -1.2 ± 1.1.

Substance FLYIRRAVGKWFLVFVTLQQ registered an amyloid nucleation score of 0.135 ± 0.48.

As for GLGLSFDVSVVPQDGYGIRL, the amyloid nucleation score is -0.492 ± 1.1.

KFDLSCNPNSPGSLRYTLNN: the amyloid nucleation score entry was “inactive”.

SWRNSKISMPNSAFTSQDTV: the amyloid nucleation score was 0.052 ± 0.31.

Regarding GCDDDDAA, the amyloid nucleation score was found to be 1.31 ± 0.32.

Substance INIHIFGWLIGLRGCM gave an amyloid nucleation score of -0.504 ± 1.1.

On to DMQGYFCSLTLMFMFRPRIM, for which the amyloid nucleation score entry is “inactive”.

HSFEFWIDTRWLVFINPYSR had an amyloid nucleation score of -0.846 ± 0.44.

Take FAFMITPCMLTSRMFSYGHA: the amyloid nucleation score is -0.18 ± 0.36.

Substance RVYSLNSRWYSLPG showed an amyloid nucleation score of 0.016 ± 0.76.

Substance RLIDCVVVRVFINNVMLPAY had an amyloid nucleation score of 5.45 ± 0.056.

NDLARSFRV returned an amyloid nucleation score of -1.13 ± 1.1.

Take CSKRSQTKVITHICARGEVS: the amyloid nucleation score came out at 0.827 ± 0.28.

With FGIERCRLYGNFYCVAVLGS, the amyloid nucleation score entry was “inactive”.

GVVTSSSRYLY returned an amyloid nucleation score of 0.072 ± 1.1.

Take GSWDFSGAIMGLSYSKTVYI: the amyloid nucleation score was -1.18 ± 1.1.

With FSWFFSNITITMNHCLGVSR, the amyloid nucleation score entry was “inactive”.

Consider CAVRF, for which the amyloid nucleation score was 0.498 ± 0.64.

Consider KLMPLTTIPDEVWYFIGYRL, for which the amyloid nucleation score is -0.501 ± 0.32.

The substance GFSPSMECHVMEAHLDMRVR showed an amyloid nucleation score of 0.227 ± 0.21.

For the substance VNLFVLDSRTNGVCFWELMT, the amyloid nucleation score was -0.452 ± 0.55.

Take NGILRRCMSKLSRAWPDGLE: the amyloid nucleation score amounted to 10.71 ± 0.046.

PAWAHVSLRLMLFYWGYLFY: the amyloid nucleation score entry was “inactive”.

AGGEEIGGVSRS: the amyloid nucleation score is -1.07 ± 0.49.

The substance YYRIWYRVLIPSP returned an amyloid nucleation score of -0.43 ± 0.29.

FNRVDDMCGPWCENWLNGQT: the amyloid nucleation score was -1.23 ± 1.1.

In turn, RRFKSDLL came in with an amyloid nucleation score of 1.57 ± 0.44.

TGFGLMHGLAGKCCLRFFIT returned an amyloid nucleation score of -0.116 ± 0.35.

Substance VLLGPSSYRLTYTMGRRRDG had an amyloid nucleation score of 0.685 ± 0.66.

On to FLRLGLAITLISV, for which the amyloid nucleation score result is “inactive”.

Turning to NVKNKKSVSLPYSKLMRGRE, the amyloid nucleation score was -0.17 ± 0.65.

Turning to CAMVKFY, the amyloid nucleation score was -1.3 ± 0.62.

For the substance YGVEAECLEKNAALLCYNID, the amyloid nucleation score entry is “inactive”.

In turn, TFLSGLCIAACSIMGFNQSS came in with an amyloid nucleation score of -1.6 ± 0.78.

AFLVYRKNNIPQYRVKVVDM: the amyloid nucleation score is -0.225 ± 0.63.

Substance STFDPCLRHPLIMCFYSVCA registered an amyloid nucleation score of 0.014 ± 0.46.

DKPVSTH: the amyloid nucleation score was -0.861 ± 1.

SVRKRKSNNAIPANAPNKI registered an amyloid nucleation score of 0.513 ± 0.35.

VNYFVRGTVSK returned an amyloid nucleation score of 0.074 ± 0.74.

Take NADGYSLMQRSNFSQSNGYL: the amyloid nucleation score entry was “inactive”.

Regarding MLDMVIYCISLYCSYTLRMR, the amyloid nucleation score worked out at 1.42 ± 0.58.

Turning to KPLCS, the amyloid nucleation score was -0.58 ± 0.55.

Turning to YYTWDFWDIFRGWYRRDGIC, the amyloid nucleation score result is “inactive”.

As for STSKDLMYDCL, the amyloid nucleation score entry was “inactive”.

As for WPWVSGPVKQSRCFRIDLSM, the amyloid nucleation score is 0.459 ± 0.57.

SGWDCSRVIQVLQVKNIYDS showed an amyloid nucleation score of 3.36 ± 0.06.

In the case of NRVTCYSMDRNIM, the amyloid nucleation score was -0.776 ± 1.1.

Turning to YSRGGKMVAARGCGSAEPDA, the amyloid nucleation score is -0.64 ± 0.76.

For the substance IFYRYFSVFNCPAICRQYRK, the amyloid nucleation score was determined as 6.382 ± 0.054.

In turn, MYLGH had an amyloid nucleation score of -0.864 ± 1.1.

QYVSMKMNLRTR came in with an amyloid nucleation score of -0.403 ± 1.

For the substance WSFVGSTLSRDGSHNQDVHW, the amyloid nucleation score worked out at 3.58 ± 0.098.

In the case of QSHTYRL, the amyloid nucleation score came out at 1.55 ± 0.25.

Substance WRGGGLQLVQCDYRTLDNTQ showed an amyloid nucleation score of -0.409 ± 0.37.

Take LTYLTWFLSMDQGMLNWLHV: the amyloid nucleation score amounted to 0.973 ± 0.35.

QIKRQGHLESPSRQR displayed an amyloid nucleation score of 0.128 ± 0.37.

Substance SSCKARMVFMLGRYGSGRNL gave an amyloid nucleation score of 0.112 ± 0.79.

Take FVSRRIVAIPLWLLVSEITS: the amyloid nucleation score was -0.201 ± 0.38.

The substance NFLLSL had an amyloid nucleation score of 0.322 ± 0.47.

For LSEMYTFCEDSRAFTVYWTF, the amyloid nucleation score was -1.02 ± 0.45.

Regarding KNSVVL, the amyloid nucleation score is 0.275 ± 0.64.

The substance QPILSNLLNHLYTNILSSTL came in with an amyloid nucleation score of -0.936 ± 0.64.

On to DRIYNVGRSRTGRSLFYSPV, for which the amyloid nucleation score is -1.19 ± 0.38.

The substance RTIVFTLWRDGITKFMVNRD had an amyloid nucleation score of 0.452 ± 0.43.

NLSLAFALMTSVVNHNMWSG yielded an amyloid nucleation score of 5.661 ± 0.044.

AFLLLRSMYW yielded an amyloid nucleation score of 6.933 ± 0.026.

For KGVCWVTICELHDW, the amyloid nucleation score was -0.305 ± 0.48.

SLSERLVILMTWCTFVVSAQ had an amyloid nucleation score of 1.17 ± 0.29.

For YVIVVGWPR, the amyloid nucleation score was found to be 9.408 ± 0.073.

On to LMILRRVVKEPESANKFCGY, for which the amyloid nucleation score result was “inactive”.

TWWIELVKLGEMVVK yielded an amyloid nucleation score of 0.313 ± 0.65.

In the case of CMFVIVKVCIVHGHIVSIAS, the amyloid nucleation score result is “inactive”.

Substance VPFGNESWLYTR registered an amyloid nucleation score of -1.06 ± 0.64.

Substance MYYYSFSDTTLWEISPQLAT came in with an amyloid nucleation score of -0.582 ± 1.1.

YNDVCLCNGSLGWKLVLE: the amyloid nucleation score was -0.177 ± 1.

In turn, MLLLVNSRLWLASIPIKYRA had an amyloid nucleation score of -0.332 ± 0.44.

YSCRIDF gave an amyloid nucleation score of 0.8 ± 0.54.

For the substance STGRNMKPSLNASFLRLRMF, the amyloid nucleation score is -0.228 ± 1.1.

For the substance CSLLVTLWE, the amyloid nucleation score was 0.554 ± 0.23.

In turn, RHMLYVGMSHNPRLGPSSLG returned an amyloid nucleation score of 0.511 ± 0.38.

Consider SAFVSVCVSDRDRMGCYYSS, for which the amyloid nucleation score result was “inactive”.

For the substance YAVLIMYYALAKAWWSLKYG, the amyloid nucleation score was -0.002 ± 1.

Turning to RFDDASGDMVNAEG, the amyloid nucleation score was found to be 4.6 ± 0.05.

As to NVDRFKVINLS, the amyloid nucleation score result is “inactive”.

For the substance RLGSSEACPICLDHFGFIMF, the amyloid nucleation score is -1.26 ± 0.54.

As for FWSSARKDLSATKKGVGFVG, the amyloid nucleation score amounted to 5.52 ± 0.06.

For the substance MYRVEGL, the amyloid nucleation score entry was “inactive”.

GSSWLRPALLVNAMIDWSRV gave an amyloid nucleation score of 0.934 ± 0.36.

With NKVFSFDYVVNNE, the amyloid nucleation score result was “inactive”.

Regarding WFTAVVLNS, the amyloid nucleation score was 0.333 ± 0.25.

In the case of SIEYRDLKVCSLLYPVPQSG, the amyloid nucleation score is 0.127 ± 0.46.

SGVFAFTKLLNTIEGDFCHR yielded an amyloid nucleation score of -0.721 ± 0.64.

Consider PFDTTCLYRYYSNFYPS, for which the amyloid nucleation score was found to be 1.73 ± 0.19.

As to RIWSFNGQTFVSNLSVSSVS, the amyloid nucleation score was -0.773 ± 0.76.

QCDVSRGAFEGFPYVYMEMW: the amyloid nucleation score was -1.4 ± 0.62.

The substance YRLPRLRMLTLFLCFTNVGK came in with an amyloid nucleation score of 1.37 ± 0.2.

On to CVPVYVKRIECHLPSGCTAV, for which the amyloid nucleation score is -0.345 ± 0.3.

With FSFTYQRFSDITCQSTLGLV, the amyloid nucleation score is -0.705 ± 0.26.

On to YGNCVHHVRGGLHAYRDHNC, for which the amyloid nucleation score is -0.137 ± 0.33.

SYSLRFWYIPVADFWLL: the amyloid nucleation score was -0.938 ± 0.36.

As for SRKKVMHYDFLVSGVVTHRW, the amyloid nucleation score entry was “inactive”.

Substance NERRT came in with an amyloid nucleation score of 0.995 ± 0.53.

Turning to SVLERPCMS, the amyloid nucleation score amounted to 0.176 ± 0.76.

LIVSPCN: the amyloid nucleation score was -0.059 ± 0.26.

As for FMTKTPLYVKSYSFWFDLVM, the amyloid nucleation score came out at 1.57 ± 0.36.

Consider FCMRNGVYLEYFVGLMLFCA, for which the amyloid nucleation score is -0.566 ± 0.63.

In the case of LSPRNPYAFVSAISDRIM, the amyloid nucleation score was -0.97 ± 0.63.

WCVMLGLGSQGSRILRVLRM: the amyloid nucleation score was found to be 0.29 ± 0.29.

As for DGFRVCDMFGHAWGVENIPF, the amyloid nucleation score stood at 0.086 ± 0.31.

The substance RCCSVAYTIGLLTRRSLATG gave an amyloid nucleation score of 0.451 ± 0.24.

Regarding TYQMWLDTE, the amyloid nucleation score was -0.445 ± 0.39.

In the case of TKRMLERVTFFVHWCWLWSV, the amyloid nucleation score amounted to 1.09 ± 0.15.

In turn, NFRGGFWPVNMNTRLIWSGV had an amyloid nucleation score of -1.52 ± 0.62.

For VKSMFLYTASSADPERGVYG, the amyloid nucleation score was -1.27 ± 1.1.

SLMVQWSTILAHIRHFMTA yielded an amyloid nucleation score of 0.073 ± 0.63.

In the case of NRFFAALLFKADLFWSQF, the amyloid nucleation score is -0.021 ± 0.76.

For STTGYSVWFVA, the amyloid nucleation score was -1.19 ± 0.62.

As for LRHWCE, the amyloid nucleation score came out at 0.218 ± 0.18.

For SLTCIDWSELQYSNKSFGSM, the amyloid nucleation score is -0.766 ± 0.79.

Consider MYLLVV, for which the amyloid nucleation score came out at 0.786 ± 0.41.

In turn, NRGTEWISGECRYHWQDVRQ displayed an amyloid nucleation score of 0.109 ± 0.21.

VFTSYFLLFICLGYCEFYGD had an amyloid nucleation score of 4.299 ± 0.042.

In the case of MYIGELIAPVCCLRSQFTPC, the amyloid nucleation score came to 5.18 ± 0.075.

In turn, LRSCSCIGKLDEEPGGFACA gave an amyloid nucleation score of -0.956 ± 0.78.

Consider WRRPFM, for which the amyloid nucleation score is 0.163 ± 0.3.

In turn, VLPRGD gave an amyloid nucleation score of 0.125 ± 0.4.

Values taken from the supplement of paper PMC12042874.
